# Measurements reported in the RNAGym collection of RNA variant scans (doi:10.1073/pnas.2313332121).
# Fewer inactive variants are shown than the library holds.
# B1: TPR 5TU (parent)
# chain: GGAUCUUCUCGAUCUAACAAAAAAGACAAAUCUGCCACAAAGCUUGAGAGCAUCUUCGGAUGCAGAGGCGGCAGCCUUCGGUGGCGCGAUAGCGCCAACGUUCUCAACUAUGACACGCAAAACGCGUGCUCCGUUGAAUGGAGUUUAUCAUG
# Variants of: B1
# Assay: polymerase ribozyme fitness, log enrichment relative to wild type (log ratio); higher = more active; in vitro selection for triplet polymerase activity
# Outline: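 Input and output libraries were sequenced on Illumina after a single in vitro selection round, run in triplicate on PCR-built, transcribed mutant libraries of each subunit of a heterodimeric triplet polymerase ribozyme. Selection annealed libraries to a biotinylated primer, the partner subunit and triplets, incubated them frozen at −7 °C, then gel-excised extended constructs for streptavidin-bead capture and RT-PCR. Genotypes with ≥10 input reads and ≥1 read per output were kept. Fitness is the logarithm, taken in base 2, of genotype enrichment divided by wild-type enrichment, using inverse-variance-weighted replicate averages.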
row,Variant,polymerase ribozyme fitness (log ratio)
1,C54A G84C,-2.93
2,U55C A91G A106C C129U C131U,≤ -4.2
3,U55A G88C U90C A122G G124A U148A,-4.18
4,C54G C69A A73G G86U C105A C118A C125A U148A,≤ -4.2
5,C54U G86U A150U,-0.319
6,C54A G71A G88C A110G,≤ -4.2
7,U55C,0.0178
8,U55A,-0.301
9,U55G,-0.284
10,C54U C85U U104G A119G G136A U146G A147G,-3.62
11,C54U C57G G94C U134A G136C,≤ -4.2
12,C54U U56A C93U G133U,-4.06
13,U53A G68U A73G U134G A138C,≤ -4.2
14,C54G C87G C99G,≤ -4.2
15,C54A G83U U134A U148C,≤ -4.2
16,C54U U56A G70A C85A G86U C95G,≤ -4.2
17,C54G C96U U111G G133U A137G,≤ -4.2
18,U55A A119G U148G,-3.77
19,U55A G84A A121U,-1.24
20,U53A C85A A106G U144G,-2.88
21,U55C G124C,-1.14
22,U53A G83U A115C G124A,-2.73
23,C54A U61A A73G U77G G100A,≤ -4.2
24,C54U C103U C123A U148G,≤ -4.2

row,Variant,polymerase ribozyme fitness (log ratio)
1,C54A C116U G143U,-3.09
2,U55A C69A C76U U82G,-3.45
3,C54A A60G G81A A91U A106U A110G G141C,≤ -4.2
4,C54A G94C A107C C108G,≤ -4.2
5,U53A U144G,-2.22
6,U53A G83C C105G,≤ -4.2
7,U55A A98U U135A,-1.42
8,U53A C87A A107C C108A U111G U146C U148A,≤ -4.2
9,C54U U55G G80U A91G A98C,-3.9
10,U55G A98G U139G,-0.271
11,U55A C87U A137C,-3.92
12,U55A G71A G80C,≤ -4.2
13,C54U G117C C123U,-0.0466
14,U53G U90A C93G A110C,≤ -4.2
15,C54U G84A,-0.613
16,C54U U55G U56A C69U A73C A115U,≤ -4.2
17,U55G A73U U146C,-1.74
18,U55A C96U,-0.113
19,C54G A66U A137G,≤ -4.2
20,U53G C54G C57U C95U,-4.07
21,C54G G58A U78G C108A G126U,≤ -4.2
22,U53C G94A A97G,-2.46
23,C54A G80C C114A U127G G143C,≤ -4.2
24,U55A G58C G68U G81A A91U C96A,≤ -4.2

row,Variant,polymerase ribozyme fitness (log ratio)
1,U55C U82G C95U,-0.677
2,U55A A73G U77G A91C C116A G141A,≤ -4.2
3,U55A C76G G92A A122G,≤ -4.2
4,U55A C93U A150C,-4.02
5,U53A G70C,≤ -4.2
6,U53A G70A,-3.81
7,U53A C57G C75G G83C U102A A121U U144A U145C,≤ -4.2
8,U55A A119G,-1.38
9,C54A G92U,-2.39
10,U53A G74A U145G,≤ -4.2
11,U55A U90A G100C C118U,≤ -4.2
12,U55C G88A C96U,≤ -4.2
13,U53A C54G G67C C118U U130A,≤ -4.2
14,U55A C76G C93U C103G G143A A150U,≤ -4.2
15,U53A G65C C85G A137U G140C,≤ -4.2
16,U55A A64G,-3.3
17,C54A C116U,-0.368
18,U53A G86U A142U,≤ -4.2
19,C54G C105U,-1.24
20,C54U A60G A64G C85U C99A C105U A106C,≤ -4.2
21,U53G A150U,-1.34
22,C54U G81A C93U C105A,-2.59
23,U53A C54G C95A,-1.73
24,U53A C79G C108U G136A U144G,≤ -4.2

row,Variant,polymerase ribozyme fitness (log ratio)
1,C54U C85U G136U,-2.08
2,U53A G94U,-3.17
3,C54U G84A C93G,≤ -4.2
4,U53A U55A A121U,-2.74
5,U53G U56A A89G G94A A121G G141U G143A,≤ -4.2
6,U55C U144C,0.187
7,U53A C93A C95G,≤ -4.2
8,U53A C54A G59U A64U C93G A137C,≤ -4.2
9,C54U C85U,-0.491
10,C54A G124A C125U A147C,-2.1
11,U55A G68A C76A C96G C114G G133A A138U,≤ -4.2
12,U55A G74A,-3.26
13,U53A G84A G94A C103U C114U G126C,≤ -4.2
14,U55A C85U C116G G133C,-1.34
15,U55A C85U C114G G128A,≤ -4.2
16,U55A C93U C95A,-2.89
17,U55A C69U C85A C87U,≤ -4.2
18,U55A U127A A142U,≤ -4.2
19,C54U U82C U90C C96A U101G,≤ -4.2
20,U55C C57G,0.125
21,U55A A106G A119C A122G,-0.869
22,U53A G92C,-3.01
23,U53A G92U,-1.74
24,U55A C63A C96G,-2

row,Variant,polymerase ribozyme fitness (log ratio)
1,C54U C85A A119U U130G,-3.83
2,C54U C99A U146G A150U,-3.6
3,U53A C85G,-3.15
4,U53A C85A,-4
5,U53C C87G U101A,≤ -4.2
6,U55A G128U,-3.12
7,C54U G126U,0.161
8,U55A C93G,-3.83
9,U55A C63U C85U C103A G136A A147U,-0.434
10,U53A C95U U104G A115U C123U,-3.81
11,C54G U55A G84A,-1.93
12,U55A C99G,-1.61
13,U55A G83A G126A,0.425
14,C54A U61C G65A G88U C95G C103G A115C A119C U135G U144G,≤ -4.2
15,U53A U78C U134G,-2.35
16,U55A C85G C125U U144A,-3.47
17,U53A U104G,-1.97
18,C54G A122G U144G,-0.687
19,C54A C85U C125G,-1.96
20,U55A G94A,-0.894
21,C54A G86U A97G,≤ -4.2
22,U53A G141A,-1.9
23,C54A A64G C76G C93U A138C,≤ -4.2
24,C54U C69A,-3.63

row,Variant,polymerase ribozyme fitness (log ratio)
1,U53A U102G G133U U144G,≤ -4.2
2,C54U C72U U135C,-3.15
3,U53G G83C,-3.03
4,C54G C96U A142C,-3.34
5,C54G G86A C129G,-3.8
6,U55A A98U U111C,-4.16
7,U53A G65A,-1.33
8,U53A C105A,-2.83
9,U53A G84U C103G U148G,≤ -4.2
10,U53A G143U,-3.09
11,C54U C57U G83C A106C U135C,≤ -4.2
12,C54U G59C A64C G94U A120G,≤ -4.2
13,U55A G83U C85A U101C C116A,≤ -4.2
14,U55A C76G U134G,≤ -4.2
15,C54U U56A C93U C131G G133A U146A G152U,-4
16,C54G C87U A122G U145C,-1.82
17,U53A G58C G59U A91G C108A G124U G126U,≤ -4.2
18,C54U U56G C57U C76U C95G,-2.9
19,C54U C123U G124A U144C,-0.47
20,U53A C95A,-0.902
21,U55C G74U,≤ -4.2
22,U53A C87U A150U,-0.451
23,C54A G86A,-3.13
24,C54A U77G C85U C93G G117C G136A,≤ -4.2

row,Variant,polymerase ribozyme fitness (log ratio)
1,U53A C76U A142G,-2.87
2,U55A C63G,0.923
3,U55A C76G C85A A113U G128A,≤ -4.2
4,U53A G86U,-2.14
5,U53A G86C,-3.25
6,C54U G83A A147U,-0.818
7,U53A U61G C99U G136A,-3.67
8,U53A G59A,-0.147
9,U53A G59U,0.71
10,U53A C76A C87U A107C,≤ -4.2
11,U55A G92U C96A G117A A121U,-1.48
12,U53C U77G G124C U135C,≤ -4.2
13,U53A G92C A137G,-3.41
14,C54U G141A,-0.888
15,U55A A60C C85U A89G,-4.15
16,U53A C75G,≤ -4.2
17,U53A G84A C87U A106G,-3.23
18,U53A C69G G83A G117U U145C,-3.13
19,U53G G136C,-4.09
20,U55A A66U A98G A122U A150C,≤ -4.2
21,C54A G83C,-3.55
22,C54A U77A C96G U127G,≤ -4.2
23,U55A G67U C69G C76A A98G,-2.81
